We go through two molecules from article doi:10.1101/2022.12.10.519866 (bioRxiv, 2022).

Common to all, as to test: cryo-EM structure
In data set [1] the target is 3×FLAG-tagged full-length mouse BIRC6 (mouse) (UniProt O88738).
The target in data set [2] is 3×FLAG-tagged full-length mouse BIRC6 (mouse, UniProt O88738 1-4882).
Data set [3] concerns the molecule itself.

3×FLAG-tagged full-length mouse BIRC6, sequence (O88738 whole entry): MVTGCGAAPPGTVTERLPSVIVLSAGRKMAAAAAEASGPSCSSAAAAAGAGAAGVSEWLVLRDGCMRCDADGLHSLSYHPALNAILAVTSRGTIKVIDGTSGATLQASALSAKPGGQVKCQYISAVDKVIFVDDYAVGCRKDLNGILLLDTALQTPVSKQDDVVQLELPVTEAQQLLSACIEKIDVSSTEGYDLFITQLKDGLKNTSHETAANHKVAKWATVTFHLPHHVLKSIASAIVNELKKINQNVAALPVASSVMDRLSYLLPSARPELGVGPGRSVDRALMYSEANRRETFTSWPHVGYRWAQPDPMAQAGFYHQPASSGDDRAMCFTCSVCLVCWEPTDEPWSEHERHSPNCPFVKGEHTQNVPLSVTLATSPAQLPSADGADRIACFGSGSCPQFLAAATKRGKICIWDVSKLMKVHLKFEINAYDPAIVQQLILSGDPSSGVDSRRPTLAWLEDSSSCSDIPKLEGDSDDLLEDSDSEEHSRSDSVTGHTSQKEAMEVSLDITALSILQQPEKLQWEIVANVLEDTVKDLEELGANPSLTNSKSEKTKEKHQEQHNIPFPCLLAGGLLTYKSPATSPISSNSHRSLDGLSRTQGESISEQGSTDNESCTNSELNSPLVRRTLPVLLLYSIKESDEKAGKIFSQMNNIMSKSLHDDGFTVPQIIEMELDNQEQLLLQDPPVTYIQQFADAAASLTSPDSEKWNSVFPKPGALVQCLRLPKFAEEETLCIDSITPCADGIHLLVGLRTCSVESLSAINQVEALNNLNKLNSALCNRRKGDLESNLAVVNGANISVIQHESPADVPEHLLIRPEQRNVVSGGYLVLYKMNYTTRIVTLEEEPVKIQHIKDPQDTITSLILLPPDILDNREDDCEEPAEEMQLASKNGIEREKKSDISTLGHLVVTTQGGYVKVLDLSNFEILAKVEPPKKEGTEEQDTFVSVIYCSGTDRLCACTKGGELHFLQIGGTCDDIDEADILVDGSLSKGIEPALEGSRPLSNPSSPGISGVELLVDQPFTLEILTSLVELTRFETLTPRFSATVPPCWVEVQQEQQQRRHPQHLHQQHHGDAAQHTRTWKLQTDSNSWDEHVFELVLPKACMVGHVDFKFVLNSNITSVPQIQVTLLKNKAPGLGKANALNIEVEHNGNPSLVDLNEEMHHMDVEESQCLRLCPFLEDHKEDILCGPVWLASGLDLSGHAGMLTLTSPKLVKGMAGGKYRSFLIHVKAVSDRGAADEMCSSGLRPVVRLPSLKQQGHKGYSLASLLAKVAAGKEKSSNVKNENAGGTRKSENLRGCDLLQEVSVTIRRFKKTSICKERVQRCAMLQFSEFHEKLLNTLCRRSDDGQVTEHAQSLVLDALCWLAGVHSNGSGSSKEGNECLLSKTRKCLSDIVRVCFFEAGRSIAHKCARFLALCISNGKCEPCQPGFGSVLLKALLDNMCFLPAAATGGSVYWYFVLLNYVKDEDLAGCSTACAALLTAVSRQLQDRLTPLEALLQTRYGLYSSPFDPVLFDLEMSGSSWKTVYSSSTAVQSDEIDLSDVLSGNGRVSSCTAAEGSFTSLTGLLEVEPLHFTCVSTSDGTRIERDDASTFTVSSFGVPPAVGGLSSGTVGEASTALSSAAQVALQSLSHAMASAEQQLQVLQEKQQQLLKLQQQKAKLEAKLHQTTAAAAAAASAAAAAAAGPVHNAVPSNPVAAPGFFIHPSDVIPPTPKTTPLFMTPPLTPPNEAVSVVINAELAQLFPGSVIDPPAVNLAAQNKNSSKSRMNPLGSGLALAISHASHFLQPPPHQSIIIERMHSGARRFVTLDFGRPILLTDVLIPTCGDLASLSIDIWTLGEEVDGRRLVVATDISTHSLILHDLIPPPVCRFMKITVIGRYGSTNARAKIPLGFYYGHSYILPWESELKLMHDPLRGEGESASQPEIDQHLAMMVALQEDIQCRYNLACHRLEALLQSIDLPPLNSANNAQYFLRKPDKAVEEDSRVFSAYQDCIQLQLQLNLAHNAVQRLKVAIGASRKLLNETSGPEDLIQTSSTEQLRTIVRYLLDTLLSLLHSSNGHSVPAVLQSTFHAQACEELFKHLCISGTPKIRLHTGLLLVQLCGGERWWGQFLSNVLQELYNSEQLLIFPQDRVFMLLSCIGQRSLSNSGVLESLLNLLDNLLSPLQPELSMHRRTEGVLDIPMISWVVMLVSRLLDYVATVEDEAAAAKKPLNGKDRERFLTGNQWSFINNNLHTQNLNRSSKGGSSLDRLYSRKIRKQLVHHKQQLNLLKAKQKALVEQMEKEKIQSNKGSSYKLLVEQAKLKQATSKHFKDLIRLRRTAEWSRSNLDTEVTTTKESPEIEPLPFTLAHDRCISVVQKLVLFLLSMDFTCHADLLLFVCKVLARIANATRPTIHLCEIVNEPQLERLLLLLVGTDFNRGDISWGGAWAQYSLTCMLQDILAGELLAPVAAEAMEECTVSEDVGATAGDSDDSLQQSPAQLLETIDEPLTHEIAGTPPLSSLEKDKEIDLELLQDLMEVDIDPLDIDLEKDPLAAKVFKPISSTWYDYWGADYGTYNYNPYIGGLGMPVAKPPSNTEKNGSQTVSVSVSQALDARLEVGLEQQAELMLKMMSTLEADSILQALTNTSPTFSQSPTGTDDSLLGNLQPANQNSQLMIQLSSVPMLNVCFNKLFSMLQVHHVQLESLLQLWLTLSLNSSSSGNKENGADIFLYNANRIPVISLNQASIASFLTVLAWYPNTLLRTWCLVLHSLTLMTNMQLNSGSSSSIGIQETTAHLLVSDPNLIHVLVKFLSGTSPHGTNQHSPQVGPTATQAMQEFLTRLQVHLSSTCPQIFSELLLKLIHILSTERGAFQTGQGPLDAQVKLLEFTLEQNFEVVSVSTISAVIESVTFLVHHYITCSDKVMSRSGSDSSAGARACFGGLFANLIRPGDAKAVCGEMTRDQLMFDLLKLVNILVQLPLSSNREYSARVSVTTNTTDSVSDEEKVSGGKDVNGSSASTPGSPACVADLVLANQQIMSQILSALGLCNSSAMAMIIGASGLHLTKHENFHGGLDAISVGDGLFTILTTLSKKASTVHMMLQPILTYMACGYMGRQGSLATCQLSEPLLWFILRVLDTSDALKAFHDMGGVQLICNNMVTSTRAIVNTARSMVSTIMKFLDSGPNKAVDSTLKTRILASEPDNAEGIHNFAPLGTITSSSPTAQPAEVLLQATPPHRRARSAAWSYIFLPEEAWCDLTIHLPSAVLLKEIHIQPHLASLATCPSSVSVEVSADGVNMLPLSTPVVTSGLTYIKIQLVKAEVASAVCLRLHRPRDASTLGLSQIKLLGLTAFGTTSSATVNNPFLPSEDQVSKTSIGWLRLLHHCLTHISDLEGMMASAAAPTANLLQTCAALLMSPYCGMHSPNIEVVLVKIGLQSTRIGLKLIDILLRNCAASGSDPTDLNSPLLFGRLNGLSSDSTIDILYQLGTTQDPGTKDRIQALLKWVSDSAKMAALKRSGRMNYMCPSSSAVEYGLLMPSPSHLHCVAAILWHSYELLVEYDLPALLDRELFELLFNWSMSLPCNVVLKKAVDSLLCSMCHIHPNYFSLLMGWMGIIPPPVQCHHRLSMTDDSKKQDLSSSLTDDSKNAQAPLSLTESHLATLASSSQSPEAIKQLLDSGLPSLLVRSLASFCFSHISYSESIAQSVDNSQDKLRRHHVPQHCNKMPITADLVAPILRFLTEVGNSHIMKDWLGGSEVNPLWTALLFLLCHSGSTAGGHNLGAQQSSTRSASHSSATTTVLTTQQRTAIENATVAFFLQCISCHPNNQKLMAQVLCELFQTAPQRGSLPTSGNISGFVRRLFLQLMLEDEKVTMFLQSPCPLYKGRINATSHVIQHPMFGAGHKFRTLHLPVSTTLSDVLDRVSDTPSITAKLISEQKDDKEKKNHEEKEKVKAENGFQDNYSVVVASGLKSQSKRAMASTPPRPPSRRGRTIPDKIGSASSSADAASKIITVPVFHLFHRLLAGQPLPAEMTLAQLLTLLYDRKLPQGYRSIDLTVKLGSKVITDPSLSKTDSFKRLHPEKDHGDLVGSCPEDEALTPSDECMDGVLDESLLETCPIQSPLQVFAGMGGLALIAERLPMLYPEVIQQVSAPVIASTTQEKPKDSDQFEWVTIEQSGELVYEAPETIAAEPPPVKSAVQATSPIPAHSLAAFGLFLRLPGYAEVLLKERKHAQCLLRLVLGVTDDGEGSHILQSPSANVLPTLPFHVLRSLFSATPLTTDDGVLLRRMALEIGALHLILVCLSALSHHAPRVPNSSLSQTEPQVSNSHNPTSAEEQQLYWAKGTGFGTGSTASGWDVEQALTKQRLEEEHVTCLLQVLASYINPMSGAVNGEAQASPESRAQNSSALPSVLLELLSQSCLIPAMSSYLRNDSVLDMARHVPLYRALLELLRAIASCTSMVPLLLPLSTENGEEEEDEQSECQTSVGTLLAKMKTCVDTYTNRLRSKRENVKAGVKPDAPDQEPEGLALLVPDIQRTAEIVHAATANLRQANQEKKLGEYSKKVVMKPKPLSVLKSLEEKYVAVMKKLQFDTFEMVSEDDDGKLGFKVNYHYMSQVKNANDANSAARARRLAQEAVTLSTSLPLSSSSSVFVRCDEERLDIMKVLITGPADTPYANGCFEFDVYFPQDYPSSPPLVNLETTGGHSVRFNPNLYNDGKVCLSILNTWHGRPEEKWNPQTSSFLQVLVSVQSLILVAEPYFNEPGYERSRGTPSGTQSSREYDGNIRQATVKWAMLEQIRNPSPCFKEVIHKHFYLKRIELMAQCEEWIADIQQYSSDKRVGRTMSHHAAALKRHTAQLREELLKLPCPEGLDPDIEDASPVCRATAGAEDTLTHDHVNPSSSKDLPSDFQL

Molecule “3×FLAG-tagged full-length mouse BIRC6, O88738 1-4882” had a stoichiometry N in data set [1] of 2.

B1: Smac/DIABLO, endogenous, co-purified with FLAG-BIRC6 from HEK293F cells (natural protein)
chain: AVPIAQKSEPHSLSSEALMRRAVSLVTDSTSTFLSQTTYALIEAITEYTKAVYTLTSLYRQYTSLLGKMNSEEEDEVWQVIIGARAEMTSKHQEYLKLETTWMTAVGLSEMAAEAAYQTGADQASITARNHIQLVKLQVEEVHQLSRKAETKLAEAQIEELRQKTQEEGEERAESEQEAYLRED
Take B1: the binding result in data set [2] was “binds”. The “stoichiometry N” value in data set [3] is 2.

As usually defined, the stoichiometry N is a count of units in the complex or per binding partner.
